Measured values published in PMC11098746 (2024).
No end group written: not given here.

Columns and labels:
ADP315 = target: T1, ADP315; test: AVEXIS screen signal:noise (double-corrected)
T1 chain: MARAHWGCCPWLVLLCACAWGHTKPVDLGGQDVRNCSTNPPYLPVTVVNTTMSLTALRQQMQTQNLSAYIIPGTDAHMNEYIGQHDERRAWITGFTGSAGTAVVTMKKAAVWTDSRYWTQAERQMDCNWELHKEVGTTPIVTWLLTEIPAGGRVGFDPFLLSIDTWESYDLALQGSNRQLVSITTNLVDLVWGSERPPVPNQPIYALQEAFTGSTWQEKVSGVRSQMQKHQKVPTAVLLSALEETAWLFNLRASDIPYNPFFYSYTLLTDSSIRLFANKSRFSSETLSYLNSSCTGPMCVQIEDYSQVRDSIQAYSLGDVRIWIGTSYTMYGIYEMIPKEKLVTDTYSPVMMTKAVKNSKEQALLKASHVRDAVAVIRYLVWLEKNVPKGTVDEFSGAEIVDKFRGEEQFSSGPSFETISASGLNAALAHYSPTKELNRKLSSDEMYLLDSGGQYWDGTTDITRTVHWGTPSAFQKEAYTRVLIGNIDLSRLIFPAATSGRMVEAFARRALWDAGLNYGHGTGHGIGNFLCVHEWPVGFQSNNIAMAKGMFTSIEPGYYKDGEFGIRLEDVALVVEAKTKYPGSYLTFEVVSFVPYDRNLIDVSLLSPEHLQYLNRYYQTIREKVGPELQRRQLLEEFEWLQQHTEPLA

ADP369 = test: AVEXIS screen signal:noise (double-corrected)
ADP339 = target: T2, ADP339; test: AVEXIS screen signal:noise (double-corrected)
T2 chain: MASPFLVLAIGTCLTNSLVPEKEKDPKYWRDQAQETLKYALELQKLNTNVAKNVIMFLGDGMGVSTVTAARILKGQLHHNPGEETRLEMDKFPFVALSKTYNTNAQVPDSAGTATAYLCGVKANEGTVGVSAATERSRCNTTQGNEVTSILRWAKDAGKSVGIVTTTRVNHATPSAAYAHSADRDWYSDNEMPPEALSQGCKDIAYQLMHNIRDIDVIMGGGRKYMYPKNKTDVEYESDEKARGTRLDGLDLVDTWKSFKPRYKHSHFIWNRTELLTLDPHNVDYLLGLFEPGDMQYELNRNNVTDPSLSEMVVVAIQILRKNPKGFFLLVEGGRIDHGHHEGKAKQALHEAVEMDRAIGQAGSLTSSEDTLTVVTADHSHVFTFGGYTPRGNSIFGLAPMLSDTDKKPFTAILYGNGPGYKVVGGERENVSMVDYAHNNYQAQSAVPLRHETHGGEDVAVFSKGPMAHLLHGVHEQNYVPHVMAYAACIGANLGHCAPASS

FGFR4 ectodomain = FGFR4 ectodomain (Homo sapiens, UniProt P22455); test: AVEXIS normalised luminescence
ADP293 = target: T3, ADP293; test: AVEXIS screen signal:noise (double-corrected)
T3 chain: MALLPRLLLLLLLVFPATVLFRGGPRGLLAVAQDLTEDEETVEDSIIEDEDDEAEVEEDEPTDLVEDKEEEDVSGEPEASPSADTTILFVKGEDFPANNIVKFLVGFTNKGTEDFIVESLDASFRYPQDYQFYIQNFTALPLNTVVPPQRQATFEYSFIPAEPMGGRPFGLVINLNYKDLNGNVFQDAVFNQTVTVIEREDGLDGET

B1: ADP258 (protein)
chain: MGFHIQRYIAMMGRGINPKTWKKLWVDSKNKQIIHVYNDVAEFMNNQIAQVVRVYQYRY
modifications: also: human Fc-tagged dimer
binding score (ADP315): 6.28

B2: ADP186 (protein)
chain: YNLNNDLSKNNNFALNTYVRKDDVEDDSKNEIVDNIQKMVDDFSDDIGFVKTSMREVLLDTEASLEEVSDHVVQNIAKYSLTIEEKLNLFDGLLEEFIENNKGLISNLAKRQQKLKGDKIKKVCDLILKKLKKLENVNKLIKYKIILKYGNKDNKKEMIQTLKNEEGLSDDFKNNLANYETEQNNDDIKEIELVNFISTNYDKFVVNLEDLNKELLKDLNMALS
modifications: bait human Fc-tagged dimer; N-glycosylation sequons mutated in Plasmodium baits
binding score (ADP369): 5.22

B3: ADP181 (protein)
chain: SSNDKNKINKNNMPLQRGASNLKDINIHNVEKKSNMESVNNNINNAACSKNLNANKVPNVAHTGVNKKGETKNEEVEKEENENEEIEKEEIENEENQQNEEDENEENQQNEEDENEENQQMNVNVDVSAEKKNKELPEEKKELQKNSEKNINKEVIKDSNKDNTFNFHKNINTAFNKNKNIYNNNNNNNNNNKAFIEKKEEAIDMKKTHCSNNNKMCKYNNMNNHMSTNKNNNQIFEESKQNVNKPIYNLKSLGNNAFKNDEKYNENDYKNNHDDDKKKYTDDSNEENIYEERNQKILLIHLLKNIKELLNRQRQNFNNFLSFLSENYQSYEKFYKSQKYQNGKNYIDKLDQQGELKNVAVVTHSFLDMSKAANGKKDKNGVFVKLMNDQNDDGDDTKDGDDTKDEDDHKNEDDHKNEDDHKNEDDHKNEDDHKNGDDNKNGDDHKNGDDNKNGDDDNGKKSHDISDIKNIIDTILQSDDITDEQKKYLEIIKKILDLEEDVLNKEKEQLQLNKNIIEVLMGKSDELRNIAVNLKNGNGDNEASQRVDLAQNIVSNLLNFAVQLKNTGNIVYNNIQGQGELLQSIEKNIDKAENDLKKSTSVNTAFTPKNVPNTEQNDQETQTDDDINDADIDENNNANDKNNCHMYKKNNCHMYKKNNCKKYFLNSHYNNYLCKKQKKYNKNDMGNKQKDNKKFKLNEAMKNHFYNIFVKETVMLKKLYKVLFELF
modifications: bait human Fc-tagged dimer; N-glycosylation sequons mutated in Plasmodium baits
binding score (ADP339): 6.19

B4: 19 (protein)
chain: KNSDTKNNAYNDYYNTYLSKIHSFKAPFNVENLENGWNVDYSSVSTNKHVVLIPSIYNRRGVLYNKNPINSDNFIIEFNFFMERKYYKEKIDEKYYKDEKNDVHEIVYKTNSDDNLATSNKANNKEQKQIKRNGFALWILKDPFVIKEAGSNVNLVLQEEEYNIFGYKNRFNGIGILFQLKKSTNKANNKANNNNNYYYYNNYNDILNVAIILNNGDKSINSDDFTIFKNIPIDMIMINNLIHTKIICNKKEIIIAFYYPKSNNYINTLIMKNNIATENYIAFTSFNYKEDDNKNIDYNDVNNKYYENQNGYLPTFVGIKQVLTFNLNNNNNNNNNININEANINNNNYNNNNNNDNNKINYDQNYNKDISANDINAAFNDVLNNINPEKNTINQAIDVLNSITKLLQKFMNHQINSEKKLLQNINILNEKLQFVQTELKVIKKNLANQAEEPKNLQKMFSTELTGLKNLFHTHTQHHKKNIEDITNKLTKKIERNNELKILTEKAQKLEQIINK
modifications: bait human Fc-tagged dimer
binding score (FGFR4 ectodomain): 1.47

B5: 24 (protein)
chain: FKGNYGEANFAFFQATPASHIEEPQKTESTDAQSNIAQNEEINNAKPLQENIANNQQNSNEQQNNNEQQNNIEQQNNNIQQNNIDTSISHVPNDAIKNPIDNSNIANLDKSNDANNVIKHEENNQAKENNLETIKHTEPLTNQNTNEVKINDHNEHEKNTEENKIEEQYNNINHHSHDINKNQAINNNMNNENADKNVPHLDQSAMSNEKHINEHTTNHPIESHTGENNHDKINEPIPIEHATTPTNEPIPIEHAATPTNEPIPIEHAATPTNEPIHIEHVATPANEPTHSEHATTTTNEPIHIEHAATPTNEHIHNEHATTTTNEPTHNEHAATITHEPTHNEHTTTPTNEPIHNEHATTPTNEPIPIEHIATPANEPTHNEHATTTTNEPTHNEHTTTPTNEPIHNEHATTPTNEPIPIEHIATPANEPTHNEHATTTTNEPTHNEHATTTTNEPTHNEHATTTTNEPIHNEHATATTNEATHNEHATTTTNEPTHNEHSTTPTNEATHSENAATSTNEQHSHDQNTEVHPNDKLALVPFQGIKNPIPSNEAQPIISFPNEDDNHAQNEGSINAPSEGEHNNADNKEGPIITPLEGEQAGTAHKEDVTHKHMVGEHVPPQKTHHGPIITPVGGNHVPPQTHHAHIITPVGGEHAHGQGNNDATYVTMNTDESSSSDTKGEHSNLRSYNKNMNNNHAQRDQYDSDTLNSEGSDDAYSSMQQNFEKNGIDSFKGKGLHVSLRERIIIEIMESAKNGIDGLLKLKDSKDSGKLFMEALEKLNINMKDLKKDKNLISLEVYDKILSTMFKILTEMSFYEDSKFYETLGIKKDILNQALKDIKIKMLRKLGVSYSRLPPIIKHTEGKCAIKDIIISISSKELAQRMAIMFTKWLAPDEYGAVVDYENNVELNVLCSGAPILIQQWKYYQNMLGFEEDKDHAYLGLIDELLVMNKRYSQNKDYVETLEKIKKSKVFKHCTKIMRIGGKVSSVPFNYENVKKPSSSIIGSLGNLIKANIATYYKATAQRINSYFHYTEKKSKKSSPLKIISVCTLLHLTDMLYKCSDENSNGVMDLYNLQLNTLNMKGKMVLQYLVHLKFLTQEKKNQLKEICEPQNGLIDETLTKMLILLSTDSHELLSHELENKGFDEDYIQDEIKNINEADNNIRDKEEDDAEKMIFDDL
modifications: bait human Fc-tagged dimer
binding score (FGFR4 ectodomain): 1

B6: 21 (protein)
chain: SPGNDNNNVNNDGVVHVLSKNIDVKNLQGTFYEIATNAADKIFPGLACRCTKYEFSGLKRDGNLGYVLINFACARNFIFGEKKSEMTFKLILNKPLDENTATVEEFNAAIYLVQGNQQILLNGNINIIYAELNEQNEFEHLILGGQKSIEPMIIMSKYRTVLLDTYNKLINSLYLAGYEPSLLTWPFIIQTDQTFCD
modifications: bait human Fc-tagged dimer
binding score (FGFR4 ectodomain): 1.31

B7: 13 (protein)
chain: YLSSENQKKTIATVHNNARTNTLKKNNANNNNANDIFGLSPSEVPNLIDDEEEYEILEGVKNNADLTRSTNIDHPSPSSTMIDLDNIITEISKLKKKKLKKEMNNKLEQQTNQNNNAIHHNNENEINTFTQNIKTNSNELKNQDSSNSLISTNSNTMDELLLYSTNSEDNLDISFGELQLYENSDEDTSDYEYVNEDYSVNHIFSNDAEESFNILEDVENIALSSSNRYQYSPIGPYKKKHTKVFENFKMTRNYDEFLKLYNLKDSSDNQEEYYELLAGEPFKLNSYYYRDVKYENVKKYIFKEIYDNIQNIATENKIIVSKKEELFFYFIKSLLKNNFICLSYEEEENLLSESKLLLEAMISKKIQ
modifications: bait human Fc-tagged dimer
binding score (FGFR4 ectodomain): 1.16

B8: ADP175 (protein)
chain: KVYQGQFYLKKNEKIHYLTKFSCNIGTCQFSIKMKLRDNIAAKLLNNYYKLNNKALKEMENDKDDGNNHNNNKYDDDNNNNNNRANKLLHMDYDNAYYVLSNQDLEYIPQRITLMQDIEQRYVNKNDKCYAFGNLKNSHMFNIPFYFKYSDLVNSKTYNLKNFINNKYSMSFNAIHSELKNNKLLQSEILNYGPILNEKNSNYAYKEIYAKTTHRVHVWFLMFDDCYDNFIRNLKLNIKTKLAYWEYLLHASKKFDISSLNDMDIKQDTSYNDFQNEETEKDIYSKENINNNNNNNMNNNMNEKKNKAIFYKSFNFDKITLLENPKRFLFLEEQFTKSEINDISFFLKYYQFKKMKNFNNMYNNLYKNGYYEQVIDYIYQNEGFHIEYEVNIFQTNKAHFSYE
modifications: bait human Fc-tagged dimer; N-glycosylation sequons mutated in Plasmodium baits
binding score (ADP315): 5.79

B9: ADP188 (protein)
chain: QDEKSVKNICVCDFTDKLNFLPLEKTKILCELKPQYGEDIKIIANKEYEINCMNNAKVFCPLKDTFINNANIKLYSPKLHFEIKDITHKGKNAALYYLKIDEEASDIFFSCSIKPKQVSGLLEGEVRVNLKKHINEEYSIFNEEEDVHVCDFSKGNLDITPSAGFYLKNSRNVACIYRVIPNKLFLIKLPKLDIVTEKLLPSIVNCLSEFSFINFALKHVQEGDNYISFNVIFGEFKKHFNLACSLDLSDFQQEPCNLGKTANIAFIFSK
modifications: bait human Fc-tagged dimer; N-glycosylation sequons mutated in Plasmodium baits
binding score (ADP293): 5.5
